Like-named read-outs stand apart in the source and are kept apart here.

Test [1] has as its target T1, human IL-36R overexpressed on 293T-hIL36R-NFκB cells (human, UniProt Q9HB29 20-575).
T1 construct: Entry includes the signal peptide; also called IL1RL2; IL-1Rrp2
T1 sequence: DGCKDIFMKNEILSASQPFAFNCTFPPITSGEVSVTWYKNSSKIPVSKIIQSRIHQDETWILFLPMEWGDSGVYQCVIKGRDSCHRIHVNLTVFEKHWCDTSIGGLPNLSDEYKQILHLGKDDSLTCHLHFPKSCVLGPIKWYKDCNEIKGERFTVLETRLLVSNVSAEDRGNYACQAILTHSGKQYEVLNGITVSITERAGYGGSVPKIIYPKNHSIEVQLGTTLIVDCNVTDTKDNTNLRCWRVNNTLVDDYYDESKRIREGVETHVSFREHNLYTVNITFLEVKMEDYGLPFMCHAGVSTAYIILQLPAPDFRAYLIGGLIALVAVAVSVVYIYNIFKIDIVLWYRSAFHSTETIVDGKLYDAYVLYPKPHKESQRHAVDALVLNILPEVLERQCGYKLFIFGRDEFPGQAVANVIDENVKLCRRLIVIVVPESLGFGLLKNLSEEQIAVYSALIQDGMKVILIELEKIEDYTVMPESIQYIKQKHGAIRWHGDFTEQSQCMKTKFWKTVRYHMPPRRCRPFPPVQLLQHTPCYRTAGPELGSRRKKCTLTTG
The test is described as follows: FACS on 293T-hIL36R-NFκB cells, ratio of MFI to background MFI. On the procedure: (§1) After the cells was washed with PBS, the cells were resuspended with 100 μL of PBS and then the fluorescence signal was detected using a flow cytometer (BD, Accuri C6). […] The ratio was the ratio of mean fluorescence intensity (MFI) of the experimental group/the background MFI, and the resulting data were analyzed using GraphPad Prism.
(§2) Affinity, binding and blocking assays for humanized antibodies hz72C1-1.1, hz72C1-1.2, hz72C1-1.3, hz72C1-2.1, hz72C1-2.2 and hz72C1-2.3 as well as hz84C4-1.1, hz84C4-1.2, hz84C4-1.3, hz84C4-1.4, hz84C4-1.5, hz84C4-2.1, hz84C4-2.2, hz84C4-2.3, hz84C4-2.4 and hz84C4-2.5 were performed according to the methods of Example 4, Example 5. Example 6, Example 7 and Example 8.

The target in test [2] is T2, IL-36R naturally expressed on OVCAR8 cells and on normal human epidermal keratinocytes (NHK cells) (human, UniProt Q9HB29 20-575).
T2 sequence (looked up): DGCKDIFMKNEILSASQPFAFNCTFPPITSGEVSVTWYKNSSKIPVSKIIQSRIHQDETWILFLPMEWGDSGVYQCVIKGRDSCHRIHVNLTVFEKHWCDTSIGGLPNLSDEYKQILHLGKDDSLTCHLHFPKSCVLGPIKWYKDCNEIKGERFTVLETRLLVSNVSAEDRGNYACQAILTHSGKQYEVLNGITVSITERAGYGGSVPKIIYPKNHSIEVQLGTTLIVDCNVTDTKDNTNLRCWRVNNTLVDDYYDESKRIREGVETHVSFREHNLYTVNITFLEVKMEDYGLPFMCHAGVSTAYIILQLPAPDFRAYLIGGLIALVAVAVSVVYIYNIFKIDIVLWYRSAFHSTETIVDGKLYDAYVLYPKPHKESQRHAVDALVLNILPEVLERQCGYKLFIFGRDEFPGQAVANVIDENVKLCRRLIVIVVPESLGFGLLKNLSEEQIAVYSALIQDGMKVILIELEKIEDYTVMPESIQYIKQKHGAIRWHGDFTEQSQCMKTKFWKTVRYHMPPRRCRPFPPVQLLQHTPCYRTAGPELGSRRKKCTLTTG
The test is described as follows: cell-based or functional assay.

The target in test [3] is T3, cynomolgus IL-36R overexpressed on 293T-CynoIL36R-NFκB cells (cynomolgus monkey).
T3 construct: Entry includes the signal peptide; also called monkey IL-36R
T3 chain: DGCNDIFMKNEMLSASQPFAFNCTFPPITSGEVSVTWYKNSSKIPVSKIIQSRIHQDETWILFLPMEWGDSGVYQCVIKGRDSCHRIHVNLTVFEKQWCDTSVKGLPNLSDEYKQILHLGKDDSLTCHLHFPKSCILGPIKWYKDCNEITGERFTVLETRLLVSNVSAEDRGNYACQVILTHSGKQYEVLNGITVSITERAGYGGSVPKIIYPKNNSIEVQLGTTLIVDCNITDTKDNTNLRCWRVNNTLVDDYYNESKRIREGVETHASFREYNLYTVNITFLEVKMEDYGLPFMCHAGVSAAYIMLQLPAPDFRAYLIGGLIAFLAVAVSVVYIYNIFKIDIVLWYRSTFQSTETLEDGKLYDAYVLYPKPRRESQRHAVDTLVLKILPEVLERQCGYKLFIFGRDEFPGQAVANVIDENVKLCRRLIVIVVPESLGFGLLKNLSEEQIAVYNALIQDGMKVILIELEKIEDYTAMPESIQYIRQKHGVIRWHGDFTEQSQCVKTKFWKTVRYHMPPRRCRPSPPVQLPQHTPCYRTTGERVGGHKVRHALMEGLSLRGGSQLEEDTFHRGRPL
Briefly: FACS on 293T-CynoIL36R-NFκB cells, ratio of MFI to background MFI. On the procedure: as §1, §2

Test [4] deals with T1, human IL-36R overexpressed on …. Briefly: FACS on 293T-hIL36R-NFκB cells, ratio of MFI to background MFI. On the procedure:
as §1, §2
This is another data set of the same source.

For test [5], the target named is T2, IL-36R naturally expressed on OVCAR8 …. The test is described as follows: cell-based or functional assay. The source holds these as a separate data set.
Test [6] concerns the target T3, cynomolgus IL-36R overexpressed on …. Briefly: FACS on 293T-CynoIL36R-NFκB cells, ratio of MFI to background MFI. On the procedure: as §1, §2

B1: BI655130 (antibody, human IgG1, kappa, L234A L235A)
heavy: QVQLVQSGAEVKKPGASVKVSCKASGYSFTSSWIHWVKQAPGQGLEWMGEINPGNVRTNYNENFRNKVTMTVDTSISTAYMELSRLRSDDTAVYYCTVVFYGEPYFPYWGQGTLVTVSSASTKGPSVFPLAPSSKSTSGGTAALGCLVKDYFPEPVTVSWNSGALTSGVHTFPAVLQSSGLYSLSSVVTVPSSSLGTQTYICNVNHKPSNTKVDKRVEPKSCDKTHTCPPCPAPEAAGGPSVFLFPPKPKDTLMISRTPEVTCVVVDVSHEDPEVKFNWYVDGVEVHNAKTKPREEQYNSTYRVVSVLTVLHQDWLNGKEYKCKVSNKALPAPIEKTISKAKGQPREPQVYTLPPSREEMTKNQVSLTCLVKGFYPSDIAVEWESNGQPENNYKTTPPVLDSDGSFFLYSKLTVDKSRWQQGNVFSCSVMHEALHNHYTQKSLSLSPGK
light: QIVLTQSPGTLSLSPGERATMTCTASSSVSSSYFHWYQQKPGQAPRLWIYRTSRLASGVPDRFSGSGSGTDFTLTISRLEPEDAATYYCHQFHRSPLTFGAGTKLEIKRTVAAPSVFIFPPSDEQLKSGTASVVCLLNNFYPREAKVQWKVDNALQSGNSQESVTEQDSKDSTYSLSSTLTLSKADYEKHKVYACEVTHQGLSSPVTKSFNRGEC
notes: also called Spesolimab
On to B1, for which the EC50 in test [1] was 5.13 nM. In test [2], the “IC50 (M); hIL36α; IL-8 production” value was determined as 4.34e-11 M, the “IC50 (M); hIL36αβγ; IL-8 production” value was determined as 4.88e-11 M, the “IC50 (M); hIL36β; IL-8 production” value amounted to 1.57e-11 M and the “IC50 (M); hIL36γ; IL-8 production” value was determined as 1.42e-11 M. Also, in test [2], the “Maximum inhibition rate %; hIL36α; IL-8 production” value was determined as 99.8%, the “Maximum inhibition rate %; hIL36αβγ; IL-8 production” value (shortened to “Maximum inhibition rate %; hIL36αβγ”) was determined as 99.9%, the “Maximum inhibition rate %; hIL36β; IL-8 production” value (“Maximum inhibition rate %; hIL36β” for short) came out at 99.7% and the “Maximum inhibition rate %; hIL36γ; IL-8 production” value (from here on “Maximum inhibition rate %; hIL36γ”) is 99.7%. The EC50 in test [3] turned out to be 5.64 nM. The half-maximal effective concentration (EC50) in test [4] was found to be 9.82 nM. Moreover, in test [5], the “IC50 (M); hIL36α; IL-8 production” value amounted to 1.26e-10 M, the “IC50 (M); hIL36αβγ; IL-8 production” value amounted to 1.98e-10 M, the “IC50 (M); hIL36β; IL-8 production” value is 3.03e-10 M and the “IC50 (M); hIL36γ; IL-8 production” value was determined as 4.42e-11 M. In test [5], the “Maximum inhibition rate %; hIL36α; IL-8 production” value turned out to be 106%, the “Maximum inhibition rate %; hIL36αβγ” value turned out to be 98.9%, the “Maximum inhibition rate %; hIL36β” value was 101% and the “Maximum inhibition rate %; hIL36γ” value was found to be 105%. The EC50 in test [6] came to 7.64 nM.

B2: hz72C1-2.1 (antibody, human IgG4 S228P, kappa)
heavy: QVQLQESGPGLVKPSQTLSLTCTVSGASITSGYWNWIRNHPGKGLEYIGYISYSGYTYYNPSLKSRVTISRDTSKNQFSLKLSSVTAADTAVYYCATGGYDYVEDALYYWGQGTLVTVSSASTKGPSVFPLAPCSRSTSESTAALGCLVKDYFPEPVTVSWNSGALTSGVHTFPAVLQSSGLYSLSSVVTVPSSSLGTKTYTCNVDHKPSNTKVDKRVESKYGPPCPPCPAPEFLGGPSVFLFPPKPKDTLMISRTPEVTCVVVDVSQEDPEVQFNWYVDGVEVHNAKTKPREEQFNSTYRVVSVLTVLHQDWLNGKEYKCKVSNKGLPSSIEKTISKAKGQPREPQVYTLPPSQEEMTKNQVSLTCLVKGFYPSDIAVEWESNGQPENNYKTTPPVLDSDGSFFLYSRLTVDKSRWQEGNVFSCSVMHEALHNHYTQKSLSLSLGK
light: DIQMTQSPSSLSASVGDRVTITCRASSNVRYMYWYQQKPGKAPKLWIYLTSNLASGVPSRFSGSGSGTSYTLTISSLQPEDFATYYCQQYTTSPYTFGQGTKLEIKRTVAAPSVFIFPPSDEQLKSGTASVVCLLNNFYPREAKVQWKVDNALQSGNSQESVTEQDSKDSTYSLSSTLTLSKADYEKHKVYACEVTHQGLSSPVTKSFNRGEC
notes: Humanized, human IgG4 / kappa
B2: the EC50 in test [1] stood at 19.3 nM. Also, in test [2], the “IC50 (M); hIL36α; IL-8 production” value is 1.43e-10 M, the “IC50 (M); hIL36αβγ; IL-8 production” value stood at 3.97e-10 M, the “IC50 (M); hIL36β; IL-8 production” value was 9.9e-11 M and the “IC50 (M); hIL36γ; IL-8 production” value came out at 8.27e-11 M. In addition, in test [2], the “Maximum inhibition rate %; hIL36α; IL-8 production” value amounted to 98.6%, the “Maximum inhibition rate %; hIL36αβγ” value worked out at 96.4%, the “Maximum inhibition rate %; hIL36β” value came out at 98.3% and the “Maximum inhibition rate %; hIL36γ” value was determined as 97.8%. In addition, the EC50 in test [3] turned out to be 5.58 nM. For the same molecule, in test [5], the “IC50 (M); hIL36α; IL-8 production” value was 1.13e-09 M, the “IC50 (M); hIL36αβγ; IL-8 production” value was 1.78e-09 M, the “IC50 (M); hIL36β; IL-8 production” value came out at 1.41e-09 M and the “IC50 (M); hIL36γ; IL-8 production” value stood at 2.41e-10 M. Also, in test [5], the “Maximum inhibition rate %; hIL36α; IL-8 production” value was 93.5%, the “Maximum inhibition rate %; hIL36αβγ” value was found to be 84.6%, the “Maximum inhibition rate %; hIL36β” value amounted to 82.1% and the “Maximum inhibition rate %; hIL36γ” value is 94.1%.

B3: hz72C1-2.2 (antibody, human IgG4 S228P, kappa)
heavy: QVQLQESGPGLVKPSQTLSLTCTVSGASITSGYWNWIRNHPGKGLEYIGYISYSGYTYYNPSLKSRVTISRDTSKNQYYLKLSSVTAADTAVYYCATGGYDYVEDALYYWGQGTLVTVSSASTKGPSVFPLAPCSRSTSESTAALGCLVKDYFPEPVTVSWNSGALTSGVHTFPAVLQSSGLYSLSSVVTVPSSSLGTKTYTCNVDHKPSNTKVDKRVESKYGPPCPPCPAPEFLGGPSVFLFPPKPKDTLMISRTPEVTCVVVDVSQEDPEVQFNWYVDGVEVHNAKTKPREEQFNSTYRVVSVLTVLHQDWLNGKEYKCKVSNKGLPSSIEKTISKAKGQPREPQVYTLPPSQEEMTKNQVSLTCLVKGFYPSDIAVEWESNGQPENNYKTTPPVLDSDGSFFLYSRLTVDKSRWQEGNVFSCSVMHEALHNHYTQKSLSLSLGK
light: DIQMTQSPSSLSASVGDRVTITCRASSNVRYMYWYQQKPGKAPKLWIYLTSNLASGVPSRFSGSGSGTSYTLTISSLQPEDFATYYCQQYTTSPYTFGQGTKLEIKRTVAAPSVFIFPPSDEQLKSGTASVVCLLNNFYPREAKVQWKVDNALQSGNSQESVTEQDSKDSTYSLSSTLTLSKADYEKHKVYACEVTHQGLSSPVTKSFNRGEC
notes: Humanized, human IgG4 / kappa
As to B3, in test [1], the 50% effective concentration (EC50) was 17.6 nM. In test [2], the “IC50 (M); hIL36α; IL-8 production” value came to 1.94e-10 M, the “IC50 (M); hIL36αβγ; IL-8 production” value is 2.3e-10 M, the “IC50 (M); hIL36β; IL-8 production” value came to 1.45e-10 M and the “IC50 (M); hIL36γ; IL-8 production” value turned out to be 7.6e-11 M. In test [2], the “Maximum inhibition rate %; hIL36α; IL-8 production” value was 98.5%, the “Maximum inhibition rate %; hIL36αβγ” value came out at 97.1%, the “Maximum inhibition rate %; hIL36β” value worked out at 98% and the “Maximum inhibition rate %; hIL36γ” value was 97.7%. The EC50 in test [3] was 7.25 nM. Also, in test [5], the “IC50 (M); hIL36α; IL-8 production” value is 2.45e-10 M, the “IC50 (M); hIL36αβγ; IL-8 production” value was determined as 1.49e-09 M, the “IC50 (M); hIL36β; IL-8 production” value stood at 1.1e-09 M and the “IC50 (M); hIL36γ; IL-8 production” value is 1.18e-09 M. For the same molecule, in test [5], the “Maximum inhibition rate %; hIL36α; IL-8 production” value was 97.3%, the “Maximum inhibition rate %; hIL36αβγ” value is 85.3%, the “Maximum inhibition rate %; hIL36β” value came out at 82.5% and the “Maximum inhibition rate %; hIL36γ” value stood at 89%.

B4: hz72C1-2.3 (antibody, human IgG4 S228P, kappa)
heavy: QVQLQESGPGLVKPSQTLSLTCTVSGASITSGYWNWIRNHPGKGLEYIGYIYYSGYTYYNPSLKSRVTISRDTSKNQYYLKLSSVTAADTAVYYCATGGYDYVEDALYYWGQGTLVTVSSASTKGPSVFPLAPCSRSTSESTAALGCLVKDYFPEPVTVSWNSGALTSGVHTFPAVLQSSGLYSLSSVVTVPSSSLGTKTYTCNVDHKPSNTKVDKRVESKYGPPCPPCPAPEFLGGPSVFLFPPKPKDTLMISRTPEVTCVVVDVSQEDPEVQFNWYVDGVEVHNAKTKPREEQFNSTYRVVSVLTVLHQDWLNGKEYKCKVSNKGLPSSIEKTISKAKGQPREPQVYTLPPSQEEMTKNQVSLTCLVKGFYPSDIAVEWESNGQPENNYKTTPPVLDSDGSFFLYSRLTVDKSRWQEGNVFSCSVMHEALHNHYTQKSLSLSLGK
light: DIQMTQSPSSLSASVGDRVTITCRASSNVRYMYWYQQKPGKAPKLWIYLTSNLASGVPSRFSGSGSGTSYTLTISSLQPEDFATYYCQQYTTSPYTFGQGTKLEIKRTVAAPSVFIFPPSDEQLKSGTASVVCLLNNFYPREAKVQWKVDNALQSGNSQESVTEQDSKDSTYSLSSTLTLSKADYEKHKVYACEVTHQGLSSPVTKSFNRGEC
notes: Humanized, human IgG4 / kappa
On to B4, for which the EC50 in test [1] is 20.2 nM. In test [2], the “IC50 (M); hIL36α; IL-8 production” value worked out at 2.17e-10 M, the “IC50 (M); hIL36αβγ; IL-8 production” value came out at 3.58e-10 M, the “IC50 (M); hIL36β; IL-8 production” value was 1.67e-10 M and the “IC50 (M); hIL36γ; IL-8 production” value was determined as 5.31e-11 M. Besides, in test [2], the “Maximum inhibition rate %; hIL36α; IL-8 production” value was 98.1%, the “Maximum inhibition rate %; hIL36αβγ” value is 95%, the “Maximum inhibition rate %; hIL36β” value came to 97.9% and the “Maximum inhibition rate %; hIL36γ” value is 97.7%. Moreover, the EC50 in test [3] amounted to 4.84 nM. Also, in test [5], the “IC50 (M); hIL36α; IL-8 production” value is 1.8e-10 M, the “IC50 (M); hIL36αβγ; IL-8 production” value was 4.5e-09 M, the “IC50 (M); hIL36β; IL-8 production” value was 2.67e-09 M and the “IC50 (M); hIL36γ; IL-8 production” value is 5.6e-10 M. For the same molecule, in test [5], the “Maximum inhibition rate %; hIL36α; IL-8 production” value was 82%, the “Maximum inhibition rate %; hIL36αβγ” value turned out to be 80%, the “Maximum inhibition rate %; hIL36β” value was found to be 78.3% and the “Maximum inhibition rate %; hIL36γ” value is 90.8%.

In general, EC50 refers to the concentration giving half of the maximal effect.

Values taken from patent US20240270857A1 (CHIA TAI TIANQING PHARMACEUTICAL GROUP, published 2024).
